From US20100226906

Assays:
[1] = target: T1, synthetic gamma poly-glutamate 30mer containing both D- and L-glutamate (15 D- and 15 L-residues) (not fully specified)
T1 chain: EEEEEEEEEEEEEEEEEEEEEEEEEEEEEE

[2] = target: T2, synthetic gamma poly-glutamate peptide of 30 D-glutamate residues
T2 chain: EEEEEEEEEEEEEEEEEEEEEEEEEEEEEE

[3] = target: T3, synthetic gamma poly-glutamate peptide of 30 L-glutamate residues
T3 chain: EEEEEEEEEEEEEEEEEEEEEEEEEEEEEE

B1: recombinant poly-γ-glutamate hydrolase (PghP) of bacteriophage φNIT1 (protein)
chain: MAQTDTYPNIEALENAETVGVAYNIEVKRQNPSMIYFSPHAGGIEVGTTELIYRVVELTGGSLYLFQGLLPSGNSRLHVTSTHFDEPMAVCMLSKHTDAVSFHGYKDDYNKNTLVGGLNTELRNLIVSKLNSKGIAAEVATDRFTATDPDNIVNRCASGKGVQLEISSAQRRAFFQNNDWSKANRGNVTQEFLDYAEAIKEAEAEYYG
hydrolysis of synthetic 30mer (digestion with purified enzyme, SDS tricine PAGE) [1]: complete hydrolysis of L- and 30mers containing both D- and L-was observed
hydrolysis of synthetic 30mer (digestion with purified enzyme, SDS tricine PAGE) [2]: No hydrolysis of the D-polyglutamate was seen
hydrolysis of synthetic 30mer (digestion with purified enzyme, SDS tricine PAGE) [3]: complete hydrolysis of L- and 30mers containing both D- and L-was observed
